Columns and labels:
[1] = test system: T1, mutacin 1140 C-terminal carboxyl analog (mu1140-COOH)
T1 sequence: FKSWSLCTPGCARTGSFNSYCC

SFNSYTC = test system: T2, SFNSYTC
T2 sequence: SFNSYTC

In the case of MutD, the Observed mass (Da) after in vitro decarboxylation with MutD, 1 hr (MALDI-TOF) [1] was 2310 Da, the Observed mass (Da) after in vitro decarboxylation with MutD, 10 hr (MALDI-TOF) [1] was 2310 Da and the Observed mass (Da) after in vitro decarboxylation with MutD, 1 hr (MALDI-TOF) (SFNSYTC) was 798 Da.
